Experiments:
[1] = system: Nc1ncnc2c1ncn2[C@@H]1O[C@H](COP(=O)(O)OP(=O)(O)OP(=O)(O)O)[C@@H](O)[C@H]1O; assay: PK/LDH-coupled ATPase assay, Michaelis-Menten kinetics (KM of ATP); type: biochemical, Staphylococcus aureus; conditions: Mg2+ catalytic domain (CAT) that binds ATP
[2] = target: T1, VraS sensor histidine kinase (GST-VraS) (Staphylococcus aureus, UniProt Q99SZ7); assay: PK/LDH-coupled ATPase (autophosphorylation) assay, NADH absorbance at […] nm; Michaelis-Menten inhibition kinetics; type: biochemical
T1 construct: GST-tagged intracellular domain, amino acids 85 to 347 (DHp and CAT)
T1 sequence (Q99SZ7 85-347): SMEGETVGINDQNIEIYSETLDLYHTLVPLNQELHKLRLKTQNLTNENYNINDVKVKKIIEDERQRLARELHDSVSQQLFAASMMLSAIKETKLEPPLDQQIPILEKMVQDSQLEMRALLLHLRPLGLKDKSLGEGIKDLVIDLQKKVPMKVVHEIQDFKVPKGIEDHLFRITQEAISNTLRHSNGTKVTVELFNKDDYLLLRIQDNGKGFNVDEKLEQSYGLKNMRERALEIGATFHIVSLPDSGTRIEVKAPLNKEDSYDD

Molecule | Km [1] | Vmax [1] | kcat [1] | kcat/Km [1] | IC50 [2]
VraS sensor histidine kinase (GST-VraS) (Staphylococcus aureus subsp. aureus N315) | 6.7 ± 1.6 µM | 0.000108 µmol/min | 0.0169 ± 0.0056 s⁻¹ | 2600 ± 600 M⁻¹ s⁻¹ | 
CCCCCCCCCCCCCCCC[n+]1ccn(Cc2ccccc2)c1C [NH125] |  |  |  |  | 41 ± 5 µM
